Molecular target: high molecular weight-melanoma associated antigen (HMW-MAA), human (human) (UniProt Q6UVK1)
Assay: competition cell ELISA on HMW-MAA+ SK-MEL-28 cells, 1 h at 4 °C, SA-HRP; competitor: biotinylated scFv C21 (0.25 µg/well); axis gives µg of mAb, not a concentration

Sequence of high molecular weight-melanoma associated antigen (HMW-MAA), human (human) (Q6UVK1 30-2322): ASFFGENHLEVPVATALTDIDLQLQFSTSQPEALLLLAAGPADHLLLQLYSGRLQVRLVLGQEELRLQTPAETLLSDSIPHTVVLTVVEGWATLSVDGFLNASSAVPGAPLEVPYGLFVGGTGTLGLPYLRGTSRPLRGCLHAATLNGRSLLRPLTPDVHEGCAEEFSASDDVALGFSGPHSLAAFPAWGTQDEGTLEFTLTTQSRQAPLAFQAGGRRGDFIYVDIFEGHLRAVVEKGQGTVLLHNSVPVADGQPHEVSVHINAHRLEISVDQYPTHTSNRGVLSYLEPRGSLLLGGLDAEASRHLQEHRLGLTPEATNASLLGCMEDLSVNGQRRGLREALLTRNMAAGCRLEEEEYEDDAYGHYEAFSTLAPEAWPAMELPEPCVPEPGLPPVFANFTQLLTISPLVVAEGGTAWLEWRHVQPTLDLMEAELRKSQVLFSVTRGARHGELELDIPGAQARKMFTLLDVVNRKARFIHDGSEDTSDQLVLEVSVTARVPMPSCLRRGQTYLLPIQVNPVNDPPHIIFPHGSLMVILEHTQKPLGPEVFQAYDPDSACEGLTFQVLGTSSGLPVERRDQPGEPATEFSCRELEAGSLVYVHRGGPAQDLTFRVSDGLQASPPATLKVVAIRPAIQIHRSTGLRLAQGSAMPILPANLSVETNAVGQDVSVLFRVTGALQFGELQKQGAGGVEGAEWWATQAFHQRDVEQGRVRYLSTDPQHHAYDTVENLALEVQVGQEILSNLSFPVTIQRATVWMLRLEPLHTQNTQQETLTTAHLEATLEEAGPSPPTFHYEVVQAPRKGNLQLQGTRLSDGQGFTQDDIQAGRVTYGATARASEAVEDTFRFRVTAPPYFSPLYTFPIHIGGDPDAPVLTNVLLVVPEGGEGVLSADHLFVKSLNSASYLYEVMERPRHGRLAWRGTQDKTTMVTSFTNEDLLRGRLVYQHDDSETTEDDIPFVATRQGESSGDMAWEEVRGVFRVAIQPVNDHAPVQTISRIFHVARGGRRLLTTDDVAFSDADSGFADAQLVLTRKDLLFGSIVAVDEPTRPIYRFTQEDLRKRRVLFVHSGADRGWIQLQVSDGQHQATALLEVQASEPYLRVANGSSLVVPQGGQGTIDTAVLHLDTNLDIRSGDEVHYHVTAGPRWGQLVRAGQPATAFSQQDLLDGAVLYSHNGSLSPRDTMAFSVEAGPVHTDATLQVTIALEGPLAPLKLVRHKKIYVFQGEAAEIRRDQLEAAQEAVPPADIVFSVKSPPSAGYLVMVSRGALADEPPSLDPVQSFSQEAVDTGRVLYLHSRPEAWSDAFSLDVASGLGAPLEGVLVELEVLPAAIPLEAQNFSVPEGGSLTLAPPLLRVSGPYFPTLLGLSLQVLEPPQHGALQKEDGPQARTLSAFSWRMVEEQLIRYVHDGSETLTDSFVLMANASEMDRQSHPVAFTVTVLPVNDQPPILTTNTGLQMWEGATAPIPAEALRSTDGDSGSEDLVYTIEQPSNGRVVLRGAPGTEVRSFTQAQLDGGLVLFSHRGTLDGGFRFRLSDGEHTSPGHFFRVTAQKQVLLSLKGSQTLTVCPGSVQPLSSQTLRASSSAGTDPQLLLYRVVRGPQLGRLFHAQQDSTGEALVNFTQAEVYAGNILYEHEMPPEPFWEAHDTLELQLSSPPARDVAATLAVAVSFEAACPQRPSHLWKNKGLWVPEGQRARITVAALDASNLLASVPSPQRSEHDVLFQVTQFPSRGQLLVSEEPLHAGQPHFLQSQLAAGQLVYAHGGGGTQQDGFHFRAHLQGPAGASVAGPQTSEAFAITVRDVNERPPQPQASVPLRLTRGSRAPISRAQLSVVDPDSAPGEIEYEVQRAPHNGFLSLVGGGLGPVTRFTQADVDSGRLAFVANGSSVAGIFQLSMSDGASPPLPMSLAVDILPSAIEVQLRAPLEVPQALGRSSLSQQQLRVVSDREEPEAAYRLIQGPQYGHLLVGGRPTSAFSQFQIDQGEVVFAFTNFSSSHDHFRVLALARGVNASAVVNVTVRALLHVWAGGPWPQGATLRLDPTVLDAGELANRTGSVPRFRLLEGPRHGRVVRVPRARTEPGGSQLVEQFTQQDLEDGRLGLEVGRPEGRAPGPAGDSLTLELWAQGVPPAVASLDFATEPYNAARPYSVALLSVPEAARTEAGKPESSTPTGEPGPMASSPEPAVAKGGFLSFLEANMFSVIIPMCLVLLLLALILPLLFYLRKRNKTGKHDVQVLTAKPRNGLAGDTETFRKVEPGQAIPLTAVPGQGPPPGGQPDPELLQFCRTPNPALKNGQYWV

For “HMW-MAA-specific mouse mAb VF1-TP34 (antibody)”, the IC50 (read off the curve) was 0.03 µg.
